Data on three substances can be found in PMC3538848.

In assay [1] the target is A/Japan/305/1957 (H2N2) hemagglutinin ectodomain (influenza A virus A/Japan/305/1957 (H2N2)). The assay can be described thus: negative-stain EM, single-particle 3D reconstruction.
The target in assay [2] is A/Hong Kong/1/1968 (H3N2) hemagglutinin ectodomain, biotinylated (influenza A virus A/Hong Kong/1/1968 (H3N2)). The assay is described as follows: BLI. Background: Biolayer interferometry detects binding as a change in optical thickness at a sensor tip.
For assay [3] the target is unchanged. The assay is described as follows: ITC. For orientation: Isothermal titration calorimetry measures the heat released or taken up as one component is titrated into another.
For assay [4] the target is unchanged. The assay is described as follows: BLI. This is another data set of the same source.
In assay [5] the target is hemagglutinin of A/California/04/2009 (H1N1) (influenza A virus A/California/04/2009 (H1N1)) (UniProt C3W5S1).
Assay [6] deals with hemagglutinin of A/Hong Kong/1073/1999 (H9N2) (influenza A virus A/Hong Kong/1073/1999 (H9N2)).
For assay [7], the target named is hemagglutinin of A/Guiyang/1/1957 (H2N2) (influenza A virus A/Guiyang/1/1957 (H2N2)).
Assay [8] deals with hemagglutinin of A/Brisbane/59/2007 (H1N1) (influenza A virus A/Brisbane/59/2007 (H1N1)).
Assay [9] concerns the target hemagglutinin of A/Memphis/3/2008 (H1N1) (influenza A virus A/Memphis/3/2008 (H1N1)).
The target in assay [10] is hemagglutinin of A/Virginia/670/1987 (H1N1) (influenza A virus A/Virginia/670/1987 (H1N1)).
Assay [11] deals with A/Vietnam/1203/2004 (H5N1) hemagglutinin ectodomain (influenza A virus A/Vietnam/1203/2004 (H5N1)).

Consider C05 Fab (Lys-C digestion of IgG), for which the stoichiometry N in assay [1] worked out at 3.

“C05 Fab (recombinant, for binding studies)”: the values for the Kd in assay [2], in assay [3] and in assay [4] were 500 nM, 100 nM and 430 nM, respectively.

On to C05 IgG (antibody), for which the MIC, hemagglutination inhibition (HAI) in assay [5] was > 100 µg/mL; in assay [8], 1.56 µg/mL; in assay [9], < 2.3 µg/mL; in [10] it was > 100 µg/mL; in [11], > 100 µg/mL. Moreover, the MIC, microneutralization (MN) came out at 90 µg/mL in assay [6] and 18 µg/mL in assay [7].

Broadly, the stoichiometry N is a count of units in the complex or per binding partner. The Kd is the equilibrium constant for the complex coming apart. High values mean weaker binding, low ones tighter binding.
